We go through one molecule from publication PMC9198812, “Residues located in the primase domain of the bacteriophage T7 primase-helicase are essential for loading the hexameric complex onto DNA”.

One series has as its target gp4-Y111A (bacteriophage T7, UniProt P03692 1-566, Y111A). Briefly: double-filter binding; 1 mM [beta,gamma-CH2] dTTP, 10 mM MgCl2; Filter binding: 40 mM Tris-HCl pH 7.5, 50 mM potassium glutamate, 10 mM MgCl2, 5 mM DTT, 1 mM [beta,gamma-CH2] dTTP, 30 min, 25 C; mass photometry: 40 mM Tris-HCl pH 7.5, 150 mM KCl, 10 mM MgCl2, 25 C, 8.7 nM gp4 hexamer, 10 nM ssDNA. Conditions: protein: recombinant; tags: His (implied: pET28, TALON); chain copies: 6; label: 5'-32P; single strand.

Series [1] concerns the target gp4 WT (T7 primase-helicase) (bacteriophage T7, UniProt P03692 1-566). The series is described as above. Conditions: protein: recombinant; tags: His (implied: pET28, TALON); chain copies: 6; label: 5'-32P; single strand.

In general, Kd refers to a measure of binding affinity in units of concentration.

B1: 50-nt ssDNA, 5'-32P (ssDNA)
DNA: ATGACCATGATTTCGACGTTTTTTTTTTTGGGGATCCTCTAACCTGCGCA
For B1, the Kd worked out at 93 nM with gp4-Y111A and 14 nM in series [1].
